The record followed here is article PMC11430019 (bioRxiv, 2024).

Test [1] concerns the target HSV-2 gH ectodomain / gL heterodimeric complex (gH_(ecto)/gL) (HSV-2, UniProt P89445;P28278). Briefly: cryo-EM structure.
Test [2] addresses HSV-2 gH ectodomain (gH_(ecto)) (HSV-2, UniProt P89445). Description: cryo-EM structure.

Chain of HSV-2 gH ectodomain / gL heterodimeric complex (gH_(ecto)/gL) (P89445 19-803, chain 1 of 2): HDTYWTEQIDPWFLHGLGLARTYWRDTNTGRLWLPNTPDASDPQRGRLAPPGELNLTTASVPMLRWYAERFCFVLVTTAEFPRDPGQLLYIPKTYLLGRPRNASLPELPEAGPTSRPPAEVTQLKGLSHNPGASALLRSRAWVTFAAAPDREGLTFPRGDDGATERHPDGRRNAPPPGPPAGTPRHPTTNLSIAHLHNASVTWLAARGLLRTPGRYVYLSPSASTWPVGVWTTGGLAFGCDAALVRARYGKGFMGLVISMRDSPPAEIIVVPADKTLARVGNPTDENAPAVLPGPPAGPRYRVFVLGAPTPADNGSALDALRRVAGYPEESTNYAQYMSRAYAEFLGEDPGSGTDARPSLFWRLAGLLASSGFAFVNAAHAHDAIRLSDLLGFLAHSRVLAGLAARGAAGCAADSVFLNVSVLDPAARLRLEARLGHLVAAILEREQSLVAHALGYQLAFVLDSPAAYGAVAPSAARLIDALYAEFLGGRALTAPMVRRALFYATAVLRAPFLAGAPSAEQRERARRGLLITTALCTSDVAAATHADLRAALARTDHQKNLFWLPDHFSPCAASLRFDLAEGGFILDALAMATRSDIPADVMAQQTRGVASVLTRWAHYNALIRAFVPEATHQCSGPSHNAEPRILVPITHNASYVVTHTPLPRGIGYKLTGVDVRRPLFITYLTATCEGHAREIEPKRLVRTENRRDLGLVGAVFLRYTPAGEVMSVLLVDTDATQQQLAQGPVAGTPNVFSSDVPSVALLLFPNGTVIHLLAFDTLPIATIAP
Chain of HSV-2 gH ectodomain / gL heterodimeric complex (gH_(ecto)/gL) (P28278 17-224, chain 2 of 2): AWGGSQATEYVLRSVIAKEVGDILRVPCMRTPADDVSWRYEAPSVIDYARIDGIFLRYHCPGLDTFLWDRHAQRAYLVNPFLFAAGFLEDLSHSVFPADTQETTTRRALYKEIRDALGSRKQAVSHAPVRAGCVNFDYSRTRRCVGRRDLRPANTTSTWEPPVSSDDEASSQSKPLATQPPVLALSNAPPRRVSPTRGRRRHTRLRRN
Chain of HSV-2 gH ectodomain (gH_(ecto)) (P89445 19-803): as the sequence (P89445 19-803, chain 1 of 2) above

B1: CHL27 Fab (Fab, V domains shown)
VH: QIQLVQSGPELKKPGETVKISCRASGYTFTDYSMHWVKQAPGKGLQWMGWIDTETGEPTYADDFKGRFAFSLETSAITAYLQINNLKNEDTATYFCARGLSPYWGHGTLVTVSA
VL: NIVMTQSPKSMSMSVGERVTLSCKASENVGSYVSWYQQKPEQSPKLLIYGASIRHTGVPDRFAGSGSATDFTLTISSVQAEDLAAYHCGQTYSSPYTFGGGTKLEIK
In the case of B1, the binding result in test [1] and in test [2] was “binds” throughout.
